The record followed here is the nanobody polyreactivity screen of Harvey et al. (2022).

The nature of this series: yeast display, Sf9 membrane polyspecificity reagent, FACS + sequencing; frameworks hold sequencing errors. The method, boiled down: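 Genes from sorted yeast were amplified by colony PCR, read by MiSeq 2 × 250 sequencing and filtered on CDR length. These cells carried a synthetic nanobody library in Saccharomyces cerevisiae BJ5465 and were sorted by FACS into low and high (top ~1%) gates on anti-HA and streptavidin fluorescence. Polyreactivity is labelled according to the gate of origin.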
For the sequence “QVQLVETVGGLLQAGGSLRLSCPASGSTLYYNTMGWYRQAPGKERELVATISSRGGRTHYADSVKGRFTISRDNAKNTVYLQMNSLKPEDTAVYYCNALPRVVYTVGQSPFYYWGQGTQVTVSS”, the “polyreactivity (PSR sort gate)” value is “high polyreactivity”.
Turning to “QVQLVETVGGLVQAGGSLRLSCAASGSIFTHYAMGWYREAPGKERELVAAITWSGGSTYYADSVKGRFTISRDNAKNTVYLQMNSLIPEDTAVYYCNVAWVGVSLVYGPFEYDYWGQGTQVTVSS”, the “polyreactivity (PSR sort gate)” value is “high polyreactivity”.
For the sequence “QVQLVETWGGLVQAGGSLRLSCAASGRNFRTNAMGWYRQAPGKERELVAAITSDGTYYADSVKGRFTISRDNAKNNVYLQMNSVKPEDTAVYYCNVDDRETRDDYWGQGTQVTVSS”, the “polyreactivity (PSR sort gate)” value is listed as “low polyreactivity”.
Take “QVQLVGSGGGLVQAGGSLRLSCAASGLTFNWYAMGWYRQAPGKERELVASVSKRGGSTYYADSVKGRFTISRDNAKNNVYLQMNSLKPEDTAVYYCAASRYPSYDYWGQGTQVTVSS”: the “polyreactivity (PSR sort gate)” value was “high polyreactivity”.
With “QVQLVKSGGGLVQAGGSLRLSCAASGGTFSFYTMGWYRQAPGKERELVAAIDSTGRTNYADSVKGRFTISRDNANHTVYLQMNSLKPEDTAVYYCAAGPPRADYDYWGQGTQVNVSS” the entry was “low polyreactivity”; with “QVQLVKSGGGLVQAGGSLRLSCAASGSTFYNAMGWYRQAPGKEREWVAAISIGGSTYYADSVKGRFTISRDNAKNTVYLQMNSLKPEDTAVYYCNSDLYYWLRYYDRNDYWGQGTQVTVSS”, “low polyreactivity”; with “QVQLVKSGGGLVQAGGSLRLSCAASRFIIPEYTMGWYRQAPGKARELVAAISGSGGSTYYADSVKGRFTISRDNAKHTVYLQMNSLKPEDTAVYYCATAFIVPFPGSDYWGQGTQVTVSS”, “low polyreactivity”.
In the case of “QVQLVQSGGGFVQAGGSLRVSCAASGRTFGVYAMGWYRQAPGKEREFVAAISYSGGRTYYADSVKGRFTISRDNAKNTVYLQMNSLKPEDTAVYSCNARAFPYYRRFDYWGQGTQVTVSS”, the “polyreactivity (PSR sort gate)” value was “high polyreactivity”.
As for “QVQLVQSGGGLLQAGGSLRLSCAASGSINIYNDMGWNRQATGKERELVAAITSSGGSTYYADSVKGGFTISRDNGKNTVYLQMNSLKPEDTAVYYCAADYVDHKVWYDYWGHGTQVTVSS”, the “polyreactivity (PSR sort gate)” value is “low polyreactivity”.
Consider “QVQLVQSGGGLLQAGGSLRLSSAASGYTFGYYARGCYREAPGQERELVAAITSGGTTNYADTVKGRFTISRDNAKNTVYLQINSLKPEDTAVSYCNAVCTFVRYWTDGRDGVTYDYWGQGTQVTVSS”, for which the “polyreactivity (PSR sort gate)” value is given as “low polyreactivity”.
With “QVQLVQSGGGLVQAGGSLRLICAASGSIFLYYAMGWYRQAPAKERELVAGIRRGGRKNYADSVKGRFTISRDNSKNTVYLQLNSLKPEDTGVYYCAKGGYWGQCTQVTVSS” the entry was “high polyreactivity”.
Under “QVQLVQSGGGLVQAGGSLRLSCAASGRTFSKYVLGWYRQAPGKERQLVAAITYSGGYTYYADSVKGRFTISRDNAKNTVYLQMYSLKPEDTAVYYCAAESYAHVSNGYDYWGQGTQVTVSS” stands “low polyreactivity”; under “QVQLVQSGGGLVQAGGSLRLSCAASGSIFYDYAMGWYRQAPGKERELVAAINSGVSTSYADSVKGRFTISRDNAKNTVYLQMNSLKPEDTAVYYCAKDGSSPSPWYGGFGYWGQGTQVTVSS”, “low polyreactivity”.
With “QVQLVQSGGGLVQAGGSLRLSCAASGSIINKYAMGWYRQAPGKERELVAAISFSGGSTYYADSVKGRFTISRDNAKITVYLQMNSLKPEDTAVYYCAAYHRPYQSYYWGKGTQVTVSS” the entry was “high polyreactivity”; with “QVQLVQSGGGLVQAGGSLRLSCAASGSTFYLNAMGLYIQAPGKERELLAAITDAGSTNYADSVKGRFTISRDNAKNTVYLQMNSLKPEDTAVYYCNAEPRYYSGGHGYDYWGQGTQVTVSS”, “low polyreactivity”.
In the case of “QVQLVQSGGGLVQAGGSLRLSCAASGSTFYTYGLGWYRQAPGKARQFVAAISYRGGSTYYADSVKGRFTISRDNAKNTVYLQMNSLKPEVTAVYYCYVDGVVVGTIRGGYDYWGQGTQVTVSS”, the “polyreactivity (PSR sort gate)” value is given as “low polyreactivity”.
Regarding “QVQLVQSGGGLVQAGGSLRLSCAASGYIFNFNPMGWNRQAPGKERELVAVISDRDDTTYYADSVKGRFTISRDNAKNTVYLQMNSMKPEDTAVYYCAAVGDTYVDDQYDYWGQGTQVTVSS”, the “polyreactivity (PSR sort gate)” value is “low polyreactivity”.
Under “QVQLVQSGGGLVQAGGSLRLSCAATGSTFRIYAIGWYRQAPGKEREFVAAISDRGGRTYYADSVKGRFTISRDNAKNTVYLQMNSLKPEDTAVYYCAAVKLLSSAPGDDGQMNYWGQGTQVTVSS” stands “low polyreactivity”.
As to “QVQLVQSGGGLVQAGGSLSLSCAASGRIFGINAMGWYRQAPGKESELVAAISSGGSTYYADSVKGRFTISLDNAKNTVYLQMNSLKPEDTAVYYCAADYDSYVSHDRGVWRDYWGQGTQVTVSS”, the “polyreactivity (PSR sort gate)” value was “low polyreactivity”.
With “QVQLVQSRGGLVQAGGSLRLSCAASGYIFWYYVKGWNRQAPGKERELVASITIGGGRTYYADSVKGRFTISRDFAKNSVYLQMNCMKPEDTAVYYCAAVTTPYNSDFDYWGQGTQVTVSS”, the “polyreactivity (PSR sort gate)” value is given as “low polyreactivity”.
Under “QVQLVQTGRGLVQAGGSLRLICAASGIIFKYYGMGWYRQAPGKERELVAAITDRGGSTYYADSVKGRFTISRDHAKNTVYLQMNSLKPEDTAVYYCSAVPSSGKSGFRGGYWGQVTQVTVSS” stands “high polyreactivity”; under “QVQLVVSGGGLVQAGCTHRISCAPSGRISKLYAMGWSIPAPGKERELVAAISWRGGSTYYADSVKGRFTISRDNAKITVYLQLYSLKPEDTAVYFCNKAYPADDDYWGQGTQVSVSS”, “low polyreactivity”.
With “QVQLVVSGGGLVQAGGILRFSCAASGRTIWYNAMGWYRQAPGKERELVASISRSGGSTYYADSVKGRFTISRDNAKNTVYLQMNSLKPEDTAVYYCAAESFDYTTWYGYWGQGTQVTVSS” the entry was “high polyreactivity”; with “QVQLVVSGGGLVQAGGRLRLSCAASGSSFVGYAMGWYRQAPGKERELVAAISRRGGSTYYADSVKGRFTISRDNAKNTVYLQMNRLKPEDTSVYYFAARFKVSYYNLYSYGYWRQGTQVTVSS”, “high polyreactivity”.
With “QVQLVVSGGGLVQAGGSLRLSCAASGITFYEYAMGWYRQSPGKESELVATITSGGNTNYADSVKGRFTISRDNAKNTGYLLMNSLIPEDTSVYYCAASVGYYSRYGYGYWGQGTQVTVSS” the entry was “low polyreactivity”; with “QVQLVVSGGGLVQAGGSLRLSCAASGLTFWKYTLGWYRQAPGKEREWVAAMSISGTNTYYADSVKGRFTISRDNAKNTVYLQMNSLKPEDTAVYYCAAVRGYPPTNYYYCGQGTQVTVSS”, “high polyreactivity”; with “QVQLVVSGGGLVQAGGSLRLSCAASGRIFVANAMGWYRQAPGKERELVAAISGRGSRTYYADSVKGRFTISRDNAKNTVYLQMNSLKPEDTAVYYCAARYRYDGRYDYWGQGTQVTVSS”, “high polyreactivity”.
“QVQLVVSGGGLVQAGGSLRLSCAASGRIIFWYALGWYRQAPGKERELVAGITSGGSTNYADSVKGRFTISRDNAKNTVYLQMMRLKPEVTAVYYCNTVDSIPIGSGLYYYWGQGTQVTVSS”: the “polyreactivity (PSR sort gate)” value is reported as “low polyreactivity”.
Take “QVQLVVSGGGLVQAGGSLRLSCAASGSIFGENAMGWYRQAPGKERELVAAITWSGASTYYADSVKGRFTISRDNAKNTVFLKMNSLKPEDTAVYYCNDDRFVRFSTFDYWGQGTQVTVSS”: the “polyreactivity (PSR sort gate)” value is reported as “high polyreactivity”.
As for “QVQLVVSGGGLVQAGGSLRLSCAASGSTFSRNAMGWYRQAPGKERELVASISWSGARTYYADSVKRRFTISRDNAKNTVYLQMNSLKPEDTAVYYCAKFRSYRGPYNFWGQGTQVTVSS”, the “polyreactivity (PSR sort gate)” value is “high polyreactivity”.
Take “QVQLVVSGGGLVQAGGSLRLSCAASGSTLVIYAMGGYRQAPGKERELVAAIRRTGGSTYYADSVKGRFTISRDNAKTTVDLQKNSLKPEDTAVYYCAKRSYTGYEYWGQGTQETVSS”: the “polyreactivity (PSR sort gate)” value is reported as “low polyreactivity”.
Consider “QVQLVVSGGGLVQAGGSLRLSCAPSGRTFKPYVMGWYRQAPGKERELVAAISSRGGSTYYADSVKGRFTISRDNEKTTVFLQMNSLKPEDTAVYYCNAAYWFSNKNGYWGQGTQVTVSS”, for which the “polyreactivity (PSR sort gate)” value is recorded as “high polyreactivity”.
Take “QVQLVVSGGGLVQAGGSLSLSWDASGRTFARYTMGWYRQAPGKERELVASITRGGSPYYADSVKGRFTISRDNAKNYVYLQMNSLKAEDSSVFYCAARFPQHNYWAMDYCGQGTQVTVSS”: the “polyreactivity (PSR sort gate)” value is given as “high polyreactivity”.
With “QVQLVVSRGGLVQAGGSLRLSCAASGSTFYYNAMGWYRQAPGKERELVAAISRSGGRTYYADSVKGRFTISRDNAKNTVYLQMNSLKPEDTAVYYCAAEYFDWWVTYDYWGQGTQVTVSS” the entry was “high polyreactivity”.
For “QVQLVYSGGGLVQAGGSLRISCAPSGRTYRKYAMGWYIQAPGKERELVAANSRSGGSTYYANSVKGRFTISRDIAKNTFYLQMNSLKPDDTAVYYCAAVPVHTGSLYWGFTTGYDYWGQVTQVTVSS”, the “polyreactivity (PSR sort gate)” value is “low polyreactivity”.
With “QVQLVYSGGGLVQAGGSLRLSCAASGLILWPYTMGWYRQSPWKERELVAAISSSGGSTYYADSVKGRFTISRDNAKNTVYLQMNSLKPEDTAVYYCAAVCWVISGKNGAGSMDYWGLGTQVTVSS” the entry was “high polyreactivity”; with “QVQLVYSGGGLVQAGGSLRLSCAASGSTFQAYDMGWYRQAPGKERELVAAITTGGSTNYADSVKGRFTISRDNAKNTVYLQLNSLKPEDTAVYYCNADFIYVLYYVVLYDYWGQGTQVTVSS”, “low polyreactivity”; with “QVQLVYSRRGLVQAGGSLRLSCAASGLIFAWYAIGWYRQATVNVRELVATISWNGDRTYYADSVKGRFTIARDNGKTSVYLQINSLQAEDTAVYYCAAYSVFRSYDYWGQGTQVTVSS”, “high polyreactivity”.
Under “QVQNVESGGGLVQAGGSLRLICAASGSIFDPYAMGRYRQAPGKEMELVAAIRKRGSSTYYADSVKGRFTISRDNAKYTVYLQMNSLKPEDTAVYYCAATWVSVWYRYDYWGQGTQVTVSA” stands “high polyreactivity”; under “QVQPVESGAGLVQAGGSLRLSCAASGSIFWSYAMGLYRQAPGKERELVAAITTSDGSTYYADSVKWRFTISRDNAKNTVYLQMNSLKPEDTAVYYCAADTYYVSYGYYYWGQGTQVTVSS”, “low polyreactivity”; under “QVQQQESGGGLVQAGGILRMSCAASGTIFSEANMGSYRQAPGKERELVATIGQGSTTNYADSVKGRFTISRDNAKNTVYLQMNSLKPEETAVYYCAVVNVDPVGFVYWGQGTQVTVSS”, “low polyreactivity”.
